The values that follow come from patent US20060147922A1, “Novel diagnostic and therapeutic methods and reagents therefor” (priority 2002, published 2006).

Some results are limits rather than exact numbers.

The target of experiment [1] is GST fusion of mouse importin β1 (PTAC97) (mouse) (UniProt P70168). As to the kind of experiment: GST-importin β pull-down of IVT 35S-EDD, autoradiography.
The target of experiment [2] is GSTchk2-N (GST fused to chk2 aa 1-225) (human) (UniProt O96017). As to the kind of experiment: pre-incubation of GSTchk2-N with the peptide, then pull-down of IVT 35S-EDD (competitor of EDD).
Chain of GSTchk2-N (GST fused to chk2 aa 1-225) (human) (O96017 1-225): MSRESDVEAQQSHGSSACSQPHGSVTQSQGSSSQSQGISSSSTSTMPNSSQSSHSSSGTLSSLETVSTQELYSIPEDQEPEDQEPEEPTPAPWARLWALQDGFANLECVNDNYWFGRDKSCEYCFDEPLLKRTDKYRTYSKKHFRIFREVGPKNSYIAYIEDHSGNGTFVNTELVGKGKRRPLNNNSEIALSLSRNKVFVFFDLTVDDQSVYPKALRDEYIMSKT

Chain of GST fusion of mouse importin β1 (PTAC97) (mouse) (P70168 whole entry, the tested form may be a part): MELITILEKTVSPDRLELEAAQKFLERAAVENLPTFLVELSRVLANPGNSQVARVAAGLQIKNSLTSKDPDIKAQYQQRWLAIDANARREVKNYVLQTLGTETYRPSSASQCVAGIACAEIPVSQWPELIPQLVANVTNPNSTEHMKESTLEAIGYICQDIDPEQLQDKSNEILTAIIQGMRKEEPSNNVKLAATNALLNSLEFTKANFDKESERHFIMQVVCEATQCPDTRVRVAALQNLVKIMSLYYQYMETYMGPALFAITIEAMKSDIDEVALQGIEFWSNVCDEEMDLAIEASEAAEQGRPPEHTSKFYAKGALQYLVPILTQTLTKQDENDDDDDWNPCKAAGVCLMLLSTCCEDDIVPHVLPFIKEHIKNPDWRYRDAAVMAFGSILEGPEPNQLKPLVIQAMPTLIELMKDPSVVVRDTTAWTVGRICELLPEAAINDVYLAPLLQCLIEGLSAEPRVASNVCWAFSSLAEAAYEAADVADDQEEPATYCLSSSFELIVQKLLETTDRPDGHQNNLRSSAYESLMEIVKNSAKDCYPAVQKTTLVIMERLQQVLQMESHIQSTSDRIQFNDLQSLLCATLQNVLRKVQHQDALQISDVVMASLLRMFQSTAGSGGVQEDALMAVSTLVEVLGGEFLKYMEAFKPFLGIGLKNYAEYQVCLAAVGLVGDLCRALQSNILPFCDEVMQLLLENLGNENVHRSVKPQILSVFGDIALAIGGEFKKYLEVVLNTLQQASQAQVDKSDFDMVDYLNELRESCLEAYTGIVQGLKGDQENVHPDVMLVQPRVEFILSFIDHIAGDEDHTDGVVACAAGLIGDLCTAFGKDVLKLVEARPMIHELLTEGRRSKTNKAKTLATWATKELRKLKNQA

Substance “EDD protein, full length (aa 1-2799) (from UniProt O95071 1-2799)” showed a percent of the available EDD protein pulled down in experiment [1] of 5%. The substance “FHA-binding phosphopeptide RWFDT(P)YLIRR” came in with a peptide concentration that abolished binding of EDD to chk2-N in experiment [2] of more than 50 µM.
